Data on 1 substance can be found in publication PMC5733061.

In data set [1] the test system is ValFadR (Vibrio alginolyticus). As to the kind of experiment: SPR. As to conditions: SPR: 20 mM Tris-HCl pH 7.5, 200 mM NaCl, 0.005% Tween 20, 25 C, protein 31.25-1000 nM; EMSA: binding buffer composition not given, room temperature, 5 pmol ….
In data set [2] the test system is EcFadR (Escherichia coli). As to the kind of experiment: SPR. As to conditions: SPR: 20 mM Tris-HCl pH 7.5, 200 mM NaCl, 0.005% Tween 20, 25 C, protein 31.25-1000 nM; EMSA: binding buffer composition not given, room temperature, 5 pmol ….

The Kd is a measure of binding affinity in units of concentration. A high value points to weaker binding. For fabA probe (SPR), the dissociation constant (Kd) in data set [1] stood at 258 nM; in data set [2], 559 nM.
